# Laboratory results as given in patent US20080241172A1 (CENTRE NATIONAL DE LA RECHERCHE SCIENTIFIQUE, published 2008).
# Biological target: the molecule itself
# Assay: homodimers from transfected COS cells; sedimentation in sucrose gradients
# Description: COS cells were transfected by the DEAE-dextran method, as previously described (Bon et al., 1997), using 4 μg of DNA encoding the AChE catalytic subunit and 4 μg of DNA encoding QN or PRAD-deleted QN, per 100 mm dish. Because Torpedo AChE folds into its active conformation at 27° C., but not at 37° C., the cells were incubated for two days at 37° C. after transfection, then transferred to 27° C. and maintained at this temperature for 3-4 days, in a medium containing 10% Nuserum (Inotech, Dottikon, Switzerland), which had been pretreated with 10⁻⁶ M soman to inactivate serum choline sterases.
# Centrifugation was performed in 5-20% sucrose gradients (50 mM Tris-HCl, pH 7.5, 50 mM MgCl₂, either in the presence of 0.2% Brij-97 or in the presence of 0.2% Triton X-100) in a Beckman SW41 rotor, at 36,000 rpm, for 18 h at 6° C. The gradients contained Escherichia coli β-galactosidase (16 S) and alkaline phosphatase (6.1 S) as internal sedimentation standards (Bon et al., 1997). Amphiphilic molecules generally sediment faster in the presence of Triton X100 than of Brij-97, providing an indication on their amphiphilic character.
row,Protein,binding result
1,"Torpedo AChET mutant S19C (containing two cysteines at positions 19 and 37) (enzyme, It may include a signal peptide; also called mutated torpedo AChE) DDDSELLVNTKSGKVMRTRIPVLSSHISAFLGIPFAEPPVGNMRFRRPEPKKPWSGVWNASTYPNNCQQYVDEQFPGFPGSEMWNPNREMSEDCLYLNIWVPSPRPKSATVMLWIYGGGFYSGSSTLDVYNGKYLAYTEEVVLVSLSYRVGAFGFLALHGSQEAPGNMGLLDQRMALQWVHDNIQFFGGDPKTVTLFGESAGRASVGMHILSPGSRDLFRRAILQSGSPNCPWASVSVAEGRRRAVELRRNLNCNLNSDEDLIQCLREKKPQELIDVEWNVLPFDSIFRFSFVPVIDGEFFPTSLESMLNAGNFKKTQILLGVNKDEGSFFLLYGAPGFSKDSESKISREDFMSGVKLSVPHANDLGLDAVTLQYTDWMDDNNGIKNRDGLDDIVGDHNVICPLMHFVNKYTKFGNGTYLYFFNHRASNLVWPEWMGVIHGYEIEFVFGLPLVKELNYTAEEEALSRRIMHYWATFAKTGNPNEPHSQESKWPLFTTKEQKFIDLNTEPIKVHQRLRVQMCVFWNQFLPKLLNATETIDEAERQWKTEFHRWSCYMMHWKNQFDQYSRHENCAEL",binds
2,Torpedo AChET mutant with M22 of the t peptide replaced by a cysteine (enzyme) DDDSELLVNTKSGKVMRTRIPVLSSHISAFLGIPFAEPPVGNMRFRRPEPKKPWSGVWNASTYPNNCQQYVDEQFPGFPGSEMWNPNREMSEDCLYLNIWVPSPRPKSATVMLWIYGGGFYSGSSTLDVYNGKYLAYTEEVVLVSLSYRVGAFGFLALHGSQEAPGNMGLLDQRMALQWVHDNIQFFGGDPKTVTLFGESAGRASVGMHILSPGSRDLFRRAILQSGSPNCPWASVSVAEGRRRAVELRRNLNCNLNSDEDLIQCLREKKPQELIDVEWNVLPFDSIFRFSFVPVIDGEFFPTSLESMLNAGNFKKTQILLGVNKDEGSFFLLYGAPGFSKDSESKISREDFMSGVKLSVPHANDLGLDAVTLQYTDWMDDNNGIKNRDGLDDIVGDHNVICPLMHFVNKYTKFGNGTYLYFFNHRASNLVWPEWMGVIHGYEIEFVFGLPLVKELNYTAEEEALSRRIMHYWATFAKTGNPNEPHSQESKWPLFTTKEQKFIDLNTEPIKVHQRLRVQMCVFWNQFLPKLLNATETIDEAERQWKTEFHRWSSYMCHWKNQFDQYSRHENCAEL,binds
3,"Torpedo AChET mutant S19C/C37S (enzyme, also called S19 with C37S) DDDSELLVNTKSGKVMRTRIPVLSSHISAFLGIPFAEPPVGNMRFRRPEPKKPWSGVWNASTYPNNCQQYVDEQFPGFPGSEMWNPNREMSEDCLYLNIWVPSPRPKSATVMLWIYGGGFYSGSSTLDVYNGKYLAYTEEVVLVSLSYRVGAFGFLALHGSQEAPGNMGLLDQRMALQWVHDNIQFFGGDPKTVTLFGESAGRASVGMHILSPGSRDLFRRAILQSGSPNCPWASVSVAEGRRRAVELRRNLNCNLNSDEDLIQCLREKKPQELIDVEWNVLPFDSIFRFSFVPVIDGEFFPTSLESMLNAGNFKKTQILLGVNKDEGSFFLLYGAPGFSKDSESKISREDFMSGVKLSVPHANDLGLDAVTLQYTDWMDDNNGIKNRDGLDDIVGDHNVICPLMHFVNKYTKFGNGTYLYFFNHRASNLVWPEWMGVIHGYEIEFVFGLPLVKELNYTAEEEALSRRIMHYWATFAKTGNPNEPHSQESKWPLFTTKEQKFIDLNTEPIKVHQRLRVQMCVFWNQFLPKLLNATETIDEAERQWKTEFHRWSCYMMHWKNQFDQYSRHENSAEL",binds
4,Torpedo AChET mutant with M21 of the t peptide replaced by a cysteine (enzyme) DDDSELLVNTKSGKVMRTRIPVLSSHISAFLGIPFAEPPVGNMRFRRPEPKKPWSGVWNASTYPNNCQQYVDEQFPGFPGSEMWNPNREMSEDCLYLNIWVPSPRPKSATVMLWIYGGGFYSGSSTLDVYNGKYLAYTEEVVLVSLSYRVGAFGFLALHGSQEAPGNMGLLDQRMALQWVHDNIQFFGGDPKTVTLFGESAGRASVGMHILSPGSRDLFRRAILQSGSPNCPWASVSVAEGRRRAVELRRNLNCNLNSDEDLIQCLREKKPQELIDVEWNVLPFDSIFRFSFVPVIDGEFFPTSLESMLNAGNFKKTQILLGVNKDEGSFFLLYGAPGFSKDSESKISREDFMSGVKLSVPHANDLGLDAVTLQYTDWMDDNNGIKNRDGLDDIVGDHNVICPLMHFVNKYTKFGNGTYLYFFNHRASNLVWPEWMGVIHGYEIEFVFGLPLVKELNYTAEEEALSRRIMHYWATFAKTGNPNEPHSQESKWPLFTTKEQKFIDLNTEPIKVHQRLRVQMCVFWNQFLPKLLNATETIDEAERQWKTEFHRWSSYCMHWKNQFDQYSRHENCAEL,binds
5,"Torpedo AChET mutant with residue 3 of the t peptide replaced by a cysteine, with mutation of C37 (C37S) (enzyme, also called 13 (printed; read as I3) with C37S) DDDSELLVNTKSGKVMRTRIPVLSSHISAFLGIPFAEPPVGNMRFRRPEPKKPWSGVWNASTYPNNCQQYVDEQFPGFPGSEMWNPNREMSEDCLYLNIWVPSPRPKSATVMLWIYGGGFYSGSSTLDVYNGKYLAYTEEVVLVSLSYRVGAFGFLALHGSQEAPGNMGLLDQRMALQWVHDNIQFFGGDPKTVTLFGESAGRASVGMHILSPGSRDLFRRAILQSGSPNCPWASVSVAEGRRRAVELRRNLNCNLNSDEDLIQCLREKKPQELIDVEWNVLPFDSIFRFSFVPVIDGEFFPTSLESMLNAGNFKKTQILLGVNKDEGSFFLLYGAPGFSKDSESKISREDFMSGVKLSVPHANDLGLDAVTLQYTDWMDDNNGIKNRDGLDDIVGDHNVICPLMHFVNKYTKFGNGTYLYFFNHRASNLVWPEWMGVIHGYEIEFVFGLPLVKELNYTAEEEALSRRIMHYWATFAKTGNPNEPHSQESKWPLFTTKEQKFIDLNTEPIKVHQRLRVQMCVFWNQFLPKLLNATETCDEAERQWKTEFHRWSSYMMHWKNQFDQYSRHENSAEL",binds
6,"Torpedo AChET mutant with T12 of the t peptide replaced by a cysteine, with mutation of C37 (C37S) (enzyme, also called T12 with C37S) DDDSELLVNTKSGKVMRTRIPVLSSHISAFLGIPFAEPPVGNMRFRRPEPKKPWSGVWNASTYPNNCQQYVDEQFPGFPGSEMWNPNREMSEDCLYLNIWVPSPRPKSATVMLWIYGGGFYSGSSTLDVYNGKYLAYTEEVVLVSLSYRVGAFGFLALHGSQEAPGNMGLLDQRMALQWVHDNIQFFGGDPKTVTLFGESAGRASVGMHILSPGSRDLFRRAILQSGSPNCPWASVSVAEGRRRAVELRRNLNCNLNSDEDLIQCLREKKPQELIDVEWNVLPFDSIFRFSFVPVIDGEFFPTSLESMLNAGNFKKTQILLGVNKDEGSFFLLYGAPGFSKDSESKISREDFMSGVKLSVPHANDLGLDAVTLQYTDWMDDNNGIKNRDGLDDIVGDHNVICPLMHFVNKYTKFGNGTYLYFFNHRASNLVWPEWMGVIHGYEIEFVFGLPLVKELNYTAEEEALSRRIMHYWATFAKTGNPNEPHSQESKWPLFTTKEQKFIDLNTEPIKVHQRLRVQMCVFWNQFLPKLLNATETIDEAERQWKCEFHRWSSYMMHWKNQFDQYSRHENSAEL",binds
7,Torpedo AChET mutant with H34 of the t peptide replaced by a cysteine (enzyme) DDDSELLVNTKSGKVMRTRIPVLSSHISAFLGIPFAEPPVGNMRFRRPEPKKPWSGVWNASTYPNNCQQYVDEQFPGFPGSEMWNPNREMSEDCLYLNIWVPSPRPKSATVMLWIYGGGFYSGSSTLDVYNGKYLAYTEEVVLVSLSYRVGAFGFLALHGSQEAPGNMGLLDQRMALQWVHDNIQFFGGDPKTVTLFGESAGRASVGMHILSPGSRDLFRRAILQSGSPNCPWASVSVAEGRRRAVELRRNLNCNLNSDEDLIQCLREKKPQELIDVEWNVLPFDSIFRFSFVPVIDGEFFPTSLESMLNAGNFKKTQILLGVNKDEGSFFLLYGAPGFSKDSESKISREDFMSGVKLSVPHANDLGLDAVTLQYTDWMDDNNGIKNRDGLDDIVGDHNVICPLMHFVNKYTKFGNGTYLYFFNHRASNLVWPEWMGVIHGYEIEFVFGLPLVKELNYTAEEEALSRRIMHYWATFAKTGNPNEPHSQESKWPLFTTKEQKFIDLNTEPIKVHQRLRVQMCVFWNQFLPKLLNATETIDEAERQWKTEFHRWSSYMMHWKNQFDQYSRCENCAEL,binds
8,"Torpedo AChET mutant with M21 of the t peptide replaced by a cysteine, with mutation of C37 (C37S) (enzyme, also called M21 with C37S) DDDSELLVNTKSGKVMRTRIPVLSSHISAFLGIPFAEPPVGNMRFRRPEPKKPWSGVWNASTYPNNCQQYVDEQFPGFPGSEMWNPNREMSEDCLYLNIWVPSPRPKSATVMLWIYGGGFYSGSSTLDVYNGKYLAYTEEVVLVSLSYRVGAFGFLALHGSQEAPGNMGLLDQRMALQWVHDNIQFFGGDPKTVTLFGESAGRASVGMHILSPGSRDLFRRAILQSGSPNCPWASVSVAEGRRRAVELRRNLNCNLNSDEDLIQCLREKKPQELIDVEWNVLPFDSIFRFSFVPVIDGEFFPTSLESMLNAGNFKKTQILLGVNKDEGSFFLLYGAPGFSKDSESKISREDFMSGVKLSVPHANDLGLDAVTLQYTDWMDDNNGIKNRDGLDDIVGDHNVICPLMHFVNKYTKFGNGTYLYFFNHRASNLVWPEWMGVIHGYEIEFVFGLPLVKELNYTAEEEALSRRIMHYWATFAKTGNPNEPHSQESKWPLFTTKEQKFIDLNTEPIKVHQRLRVQMCVFWNQFLPKLLNATETIDEAERQWKTEFHRWSSYCMHWKNQFDQYSRHENSAEL",binds
9,"Torpedo AChET mutant with A6 of the t peptide replaced by a cysteine, with mutation of C37 (C37S) (enzyme, also called A6 with C37S) DDDSELLVNTKSGKVMRTRIPVLSSHISAFLGIPFAEPPVGNMRFRRPEPKKPWSGVWNASTYPNNCQQYVDEQFPGFPGSEMWNPNREMSEDCLYLNIWVPSPRPKSATVMLWIYGGGFYSGSSTLDVYNGKYLAYTEEVVLVSLSYRVGAFGFLALHGSQEAPGNMGLLDQRMALQWVHDNIQFFGGDPKTVTLFGESAGRASVGMHILSPGSRDLFRRAILQSGSPNCPWASVSVAEGRRRAVELRRNLNCNLNSDEDLIQCLREKKPQELIDVEWNVLPFDSIFRFSFVPVIDGEFFPTSLESMLNAGNFKKTQILLGVNKDEGSFFLLYGAPGFSKDSESKISREDFMSGVKLSVPHANDLGLDAVTLQYTDWMDDNNGIKNRDGLDDIVGDHNVICPLMHFVNKYTKFGNGTYLYFFNHRASNLVWPEWMGVIHGYEIEFVFGLPLVKELNYTAEEEALSRRIMHYWATFAKTGNPNEPHSQESKWPLFTTKEQKFIDLNTEPIKVHQRLRVQMCVFWNQFLPKLLNATETIDECERQWKTEFHRWSSYMMHWKNQFDQYSRHENSAEL",binds
